Assay in all cases: cell-based or functional assay
Common to all, as to set-up: AUC (IL-2 ELISA): unit not given beside the values
A general note: ELISA stands for enzyme-linked immunosorbent assay.

Assay [1] addresses chimeric receptor containing a rhesus macaque FcγRIIB ectodomain and the CD3ζ intracellular signaling domain (rhesus macaque).
Assay [2] addresses chimeric receptor containing a rhesus macaque FcγRIII ectodomain and the CD3ζ intracellular signaling domain (rhesus macaque) (UniProt A3RFZ7).
The target in assay [3] is chimeric receptor containing a rhesus macaque FcγRI ectodomain and the CD3ζ intracellular signaling domain (rhesus macaque).
Assay [4] has as its target chimeric receptor containing a rhesus macaque FcγRIIA ectodomain and the CD3ζ intracellular signaling domain (rhesus macaque).

Where only a bound is given, the exact number is not on record here.

Chain of PGT121 (Mammalian) (antibody) (heavy): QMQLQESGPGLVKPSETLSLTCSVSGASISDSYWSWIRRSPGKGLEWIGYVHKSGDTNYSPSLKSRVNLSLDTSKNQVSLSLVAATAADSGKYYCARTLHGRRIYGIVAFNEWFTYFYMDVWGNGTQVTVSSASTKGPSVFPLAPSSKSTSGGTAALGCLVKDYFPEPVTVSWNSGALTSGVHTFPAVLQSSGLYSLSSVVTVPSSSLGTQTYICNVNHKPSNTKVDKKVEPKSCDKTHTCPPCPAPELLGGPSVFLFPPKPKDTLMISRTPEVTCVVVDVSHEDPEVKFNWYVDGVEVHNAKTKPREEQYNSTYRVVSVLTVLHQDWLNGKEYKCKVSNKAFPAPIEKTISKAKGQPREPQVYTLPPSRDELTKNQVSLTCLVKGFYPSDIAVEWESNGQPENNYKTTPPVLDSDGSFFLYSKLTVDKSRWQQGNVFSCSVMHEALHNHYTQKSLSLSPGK
Chain of PGT121 (Mammalian) (antibody) (light): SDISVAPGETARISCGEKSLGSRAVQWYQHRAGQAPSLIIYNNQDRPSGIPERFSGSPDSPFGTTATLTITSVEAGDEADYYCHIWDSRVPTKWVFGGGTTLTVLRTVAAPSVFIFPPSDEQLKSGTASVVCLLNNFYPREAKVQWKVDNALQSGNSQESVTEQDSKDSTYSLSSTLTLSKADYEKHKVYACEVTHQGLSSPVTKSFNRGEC
Chain of chimeric receptor containing a rhesus macaque FcγRIII ectodomain and the CD3ζ intracellular signaling domain (rhesus macaque) (A3RFZ7 whole entry, change not shown, the tested form may be a part): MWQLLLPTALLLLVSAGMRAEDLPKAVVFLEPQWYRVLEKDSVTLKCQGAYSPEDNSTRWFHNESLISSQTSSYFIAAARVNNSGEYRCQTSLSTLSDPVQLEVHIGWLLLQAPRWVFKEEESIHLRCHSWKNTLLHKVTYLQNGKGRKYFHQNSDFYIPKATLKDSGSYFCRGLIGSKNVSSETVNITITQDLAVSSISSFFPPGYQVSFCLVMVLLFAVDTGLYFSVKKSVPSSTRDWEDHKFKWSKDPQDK

For Nb PGT121-KDEL (antibody), the AUC (IL-2 ELISA) in assay [1] turned out to be 0.4; in assay [2], 0.934; in assay [3], 4.46; in assay [4], 0.401. Besides, the EC50 (IL-2 ELISA) in assay [1] was > 50 µg/mL; in assay [2], 3.57 µg/mL; in assay [3], 0.548 µg/mL; in assay [4], > 50 µg/mL.
For the substance PGT121 (Mammalian) (antibody), the AUC (IL-2 ELISA) is 0.636 in assay [1], 3.55 in assay [3] and 3.74 in assay [4]. Besides, the EC50 (IL-2 ELISA) in assay [1] came to 3.58 µg/mL; in assay [3], 0.619 µg/mL; in assay [4] it was 1.72 µg/mL.
Take Nb PGT121-YTE (antibody): the AUC (IL-2 ELISA) in assay [1] was found to be 0.256; in assay [2] it was 0.226; in assay [3] it was 3.99; in assay [4], 0.246. In addition, the EC50 (IL-2 ELISA) is > 50 µg/mL in assay [1], > 50 µg/mL in assay [2], 0.735 µg/mL in assay [3] and > 50 µg/mL in assay [4].
With VRC07-523-LS(Mammalian) (antibody), the AUC (IL-2 ELISA) in assay [1] was determined as 1.36; in assay [2], 1.82; in assay [3], 4.37; in assay [4], 4.5. Moreover, the EC50 (IL-2 ELISA) in assay [1] is 1.95 µg/mL; in assay [2], 0.637 µg/mL; in assay [3], 0.303 µg/mL; in assay [4], 0.853 µg/mL.
As for VRC07-523 (Mammalian) (antibody), the AUC (IL-2 ELISA) in assay [1] came to 1.26; in assay [2] it was 1.46; in assay [3], 4.14; in assay [4], 4.15. Besides, the EC50 (IL-2 ELISA) in assay [1] was 2.1 µg/mL; in assay [2], 1.21 µg/mL; in assay [3], 0.326 µg/mL; in assay [4], 0.722 µg/mL.
Take Nb VRC01-KDEL (antibody): the AUC (IL-2 ELISA) in assay [1] was 0.355; in assay [2], 0.37; in assay [3] it was 4.69; in assay [4], 0.334. In addition, the EC50 (IL-2 ELISA) in assay [1] is > 50 µg/mL; in assay [2], > 50 µg/mL; in assay [3], 0.419 µg/mL; in assay [4], > 50 µg/mL.

For the origin of these results see patent US20250333512A1.
